# Source: the RNAGym collection of RNA variant scans (doi:10.1093/molbev/msab373)
# B1: Azoarcus group I ribozyme (parent)
# chain: GUGCCUUGCGCCGGGAAACCACGCAAGGGAUGGUGUCAAAUUCGGCGAAACCUAAGCGCCCGCCCGGGCGUAUGGCAACGCCGAGCCAAGCUUCGGCGCCUGCGCCGAUGAAGGUGUAGAGACUAGACGGCACCCACCUAAGGCAAACGCUAUGGUGAAGGCAUAGUCCAGGGAGUGGCGAAAGUCACACAAACCGG
# Variants of: B1
# Test: reverse-splicing fitness (ratio to wild type); higher = more active; in vitro selection; Mg2+ level not given
# In short: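 An in vitro group I ribozyme library with randomized positions was T7-transcribed and gel-purified. In triplicate, 10 pmol RNA in EPPS pH 7.5 was reacted with 50 pmoles of a 30-nt RNA substrate for 1 h at 37 °C across several added MgCl2 levels (1–48 mM), then stopped with EDTA. Products were reverse transcribed from a substrate-complementary primer, PCR-amplified and sequenced (HiSeq 4000). Fitness is a variant's read proportion after selection over that before, normalised to wild type.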
row,Variant,reverse-splicing fitness
1,C82A A111C A120C A145G C150G C169U U176A,0.0109
2,C82A A111C A120C A145G C150G C169U U176G,0.00808
3,C82A A111C A120G A145C C150A U176A,0.0103
4,C82A A111C A120G A145C C150A U176G,0.00559
5,C82A A111C A120G A145C C150A U176C,0.0105
6,C82A A111C A120G A145G C150A C169G U176A,0.017
7,C82A A111C A120G A145G C150A C169G U176C,0.0274
8,C82A A111C A120G A145G C150A C169G U176G,0.00656
9,C82A A111C A120C C150G C169G U176A,0.00786
10,C82A A111C A120C C150G C169G U176C,0.00606
11,C82A A111C A120C C150G C169G U176G,0.00646
12,C82A A111C A120C A145G C150G C169U,0.00903
13,C82A A111C A120G A145G U176G,0.00581
14,C82A A111C A120G A145G U176A,0.0153
15,C82A A111C A120G A145G U176C,0.0226
16,C82A A111C A120G A145C C169U,0.00846
17,C82A A111C A120G A145C C169A,0.00659
18,C82A A111C A120G A145C C169G,0.00901
19,C82A A111C A120C C150A C169G U176A,0.0168
20,C82A A111C A120C C150A C169G U176C,0.0202
21,C82A A111C A120C C150A C169G U176G,0.00878

row,Variant,reverse-splicing fitness
1,C82A A111C A120C A145U C150U C169A U176A,0.0153
2,C82A A111C A120C A145U C150U C169A U176C,0.0129
3,C82A A111C A120C A145U C150U C169A U176G,0.00742
4,C82A A111C A120G A145U C150A U176C,0.02
5,C82A A111C A120G A145U C150A U176G,0.00589
6,C82A A111C A120G A145U C150A U176A,0.0139
7,C82A A111C A120G A145G C169G,0.00963
8,C82A A111C A120G A145G C169U,0.00908
9,C82A A111C A120G A145G C169A,0.0107
10,C82A A111C A120G A145C C150G C169A U176A,0.00786
11,C82A A111C A120G A145C C150G C169A U176G,0.00531
12,C82A A111C A120G A145C C150G C169A U176C,0.00612
13,C82A A111C A120G A145C C169A U176G,0.0044
14,C82A A111C A120G A145C C169A U176C,0.00724
15,C82A A111C A120G A145C C169A U176A,0.00969
16,C82A A111C A120C A145U C169G U176C,0.0178
17,C82A A111C A120C A145U C169G U176A,0.0151
18,C82A A111C A120C A145U C169G U176G,0.00709
19,C82A A111C A120G A145G C150A,0.00888
20,C82A A111C A120G A145G C150G,0.00731
21,C82A A111C A120G A145G C150U,0.0128

row,Variant,reverse-splicing fitness
1,C82A A111C A120G A145U C150G C169U,0.00788
2,C82A A111C A120G A145U C150G C169A,0.00851
3,C82A A111C A120G A145U C150G C169G,0.00749
4,C82A A111C A120C A145U C150A C169A U176A,0.0155
5,C82A A111C A120C A145U C150A C169A U176G,0.00859
6,C82A A111C A120C A145U C150A C169A U176C,0.0154
7,C82A A111C A120C A145U C150A C169G U176G,0.00745
8,C82A A111C A120C A145U C150A C169G U176C,0.0188
9,C82A A111C A120C A145U C150A C169G U176A,0.0154
10,C82A A111C A120C A145G C150G C169G U176A,0.0109
11,C82A A111C A120C A145G C150G C169G U176C,0.0131
12,C82A A111C A120C A145G C150G C169G U176G,0.00642
13,C82A A111C A120C C169G U176C,0.0233
14,C82A A111C A120C C169G U176A,0.0174
15,C82A A111C A120C C169G U176G,0.00756
16,C82A A111C A120C U176A,0.0134
17,C82A A111C A120C U176G,0.00722
18,C82A A111C A120C U176C,0.0216
19,C82A A111C A120C C150A U176G,0.00759
20,C82A A111C A120C C150A U176A,0.0118
21,C82A A111C A120C C150A U176C,0.0178

row,Variant,reverse-splicing fitness
1,C82A A111C A120C C150U C169G U176G,0.00721
2,C82A A111C A120C C150U C169G U176A,0.0139
3,C82A A111C A120C C150U C169G U176C,0.016
4,C82A A111C A120C A145U C150U C169G U176C,0.015
5,C82A A111C A120C A145U C150U C169G U176G,0.00815
6,C82A A111C A120C A145U C150U C169G U176A,0.0127
7,C82A A111C A120C A145U C150U U176A,0.0128
8,C82A A111C A120C A145U C150U U176G,0.00695
9,C82A A111C A120C A145U C150U U176C,0.0187
10,C82A A111C A120C A145U C169A U176A,0.0132
11,C82A A111C A120C A145U C169A U176G,0.00807
12,C82A A111C A120C A145U C169A U176C,0.0162
13,C82A A111C A120C A145G C169G U176A,0.0212
14,C82A A111C A120C A145G C169G U176G,0.00694
15,C82A A111C A120C A145G C169G U176C,0.0247
16,C82A A111C A120G A145G C150A C169A,0.0099
17,C82A A111C A120G A145G C150A C169U,0.00923
18,C82A A111C A120G A145G C150A C169G,0.00887
19,C82A A111C A120G A145C C150U C169U U176A,0.0143
20,C82A A111C A120G A145C C150U C169U U176C,0.00813
21,C82A A111C A120G A145C C150U C169U U176G,0.00482
